This note sets out measurements from patent US20240279318A1 (NANJING LEGEND BIOTECH, published 2024).

Residue numbers refer to the chain shown, from its start.

B1: AS170036 VL1VH1-56N98F108A (scFv)
scFv: QSALTQPRSVSGSPGQSVTISCAGTSSDVGSENYVSWYQQHPGKAPKLMIYQVNKRASGVPDRFSGSKSGNTASLTISGLQAEDEADYYCASYRSSDFNIVFGGGTKLTVLGGGGSGGGGSGGGGSEVQLVESGGGLVQPGGSLRLSCAASGFTFSSYAMSWVRQAPGKGLEWVSTINSGTNSPYYADSVKGRFTISRDNSKNTLYLQMNSLRAEDTAVYYCAKNFFDGSWFLAPPAMDYWGQGTLVTVSSHHHHHH
notes: also called 49-AS170036 VL1VH1-56N98F108A
B2: AS170036 VL1VH1-56N98F108D (scFv)
scFv: B1 scFv with A234D
notes: also called 50-AS170036 VL1VH1-56N98F108D
B3: HG108E (scFv)
scFv: B1 scFv with F98H, N182G, A234E
notes: AS170036 VL1VH1 scFv mutein; also called AS170036 VL1VH1-VHG108E
B4: HS57K (scFv)
scFv: B1 scFv with F98H, N182G, S183K, A234G
notes: AS170036 VL1VH1 scFv mutein; also called AS170036 VL1VH1-VHS57K
B5: HG56S (scFv)
scFv: B1 scFv with F98H, N182S, A234G
notes: AS170036 VL1VH1 scFv mutein
B6: HL107I (scFv)
scFv: B1 scFv with F98H, N182G, L233I, A234G
notes: AS170036 VL1VH1 scFv mutein
B7: HP58Q (scFv)
scFv: B1 scFv with F98H, N182G, P184Q, A234G
notes: AS170036 VL1VH1 scFv mutein
B8: HP110V (scFv)
scFv: B1 scFv with F98H, N182G, A234G, P236V
notes: AS170036 VL1VH1 scFv mutein
B9: HS57T (scFv)
scFv: B1 scFv with F98H, N182G, S183T, A234G
notes: AS170036 VL1VH1 scFv mutein
B10: HS57Q (scFv)
scFv: B1 scFv with F98H, N182G, S183Q, A234G
notes: AS170036 VL1VH1 scFv mutein; also called AS170036 VL1VH1-VHS57Q
B11: HG108M (scFv)
scFv: B1 scFv with F98H, N182G, A234M
notes: AS170036 VL1VH1 scFv mutein; also called AS170036 VL1VH1-VHG108M
B12: HS57A (scFv)
scFv: B1 scFv with F98H, N182G, S183A, A234G
notes: AS170036 VL1VH1 scFv mutein
B13: HS57N (scFv)
scFv: B1 scFv with F98H, N182G, S183N, A234G
notes: AS170036 VL1VH1 scFv mutein
B14: HL107N (scFv)
scFv: B1 scFv with F98H, N182G, L233N, A234G
notes: AS170036 VL1VH1 scFv mutein
B15: HS57R (scFv)
scFv: B1 scFv with F98H, N182G, S183R, A234G
notes: AS170036 VL1VH1 scFv mutein; also called AS170036 VL1VH1-VHS57R
B16: HP110G (scFv)
scFv: B1 scFv with F98H, N182G, A234G, P236G
notes: AS170036 VL1VH1 scFv mutein
B17: HG108N (scFv)
scFv: B1 scFv with F98H, N182G, A234N
notes: AS170036 VL1VH1 scFv mutein; also called AS170036 VL1VH1-VHG108N
B18: HS57D (scFv)
scFv: B1 scFv with F98H, N182G, S183D, A234G
notes: AS170036 VL1VH1 scFv mutein
B19: HP110D (scFv)
scFv: B1 scFv with F98H, N182G, A234G, P236D
notes: AS170036 VL1VH1 scFv mutein
B20: HG108T (scFv)
scFv: B1 scFv with F98H, N182G, A234T
notes: AS170036 VL1VH1 scFv mutein
B21: HG56Y (scFv)
scFv: B1 scFv with F98H, N182Y, A234G
notes: AS170036 VL1VH1 scFv mutein; also called AS170036 VL1VH1-VHG56Y
B22: HS57H (scFv)
scFv: B1 scFv with F98H, N182G, S183H, A234G
notes: AS170036 VL1VH1 scFv mutein; also called AS170036 VL1VH1-VHS57H
B23: HP58E (scFv)
scFv: B1 scFv with F98H, N182G, P184E, A234G
notes: AS170036 VL1VH1 scFv mutein
B24: HG108Q (scFv)
scFv: B1 scFv with F98H, N182G, A234Q
notes: AS170036 VL1VH1 scFv mutein
B25: HS57M (scFv)
scFv: B1 scFv with F98H, N182G, S183M, A234G
notes: AS170036 VL1VH1 scFv mutein; also called AS170036 VL1VH1-VHS57M
B26: HP110S (scFv)
scFv: B1 scFv with F98H, N182G, A234G, P236S
notes: AS170036 VL1VH1 scFv mutein
B27: HG108S (scFv)
scFv: B1 scFv with F98H, N182G, A234S
notes: AS170036 VL1VH1 scFv mutein; also called AS170036 VL1VH1-VHG108S
B28: HG108D (scFv)
scFv: B1 scFv with F98H, N182G, A234D
notes: AS170036 VL1VH1 scFv mutein; also called AS170036 VL1VH1-VHG108D
B29: HG108L (scFv)
scFv: B1 scFv with F98H, N182G, A234L
notes: AS170036 VL1VH1 scFv mutein
B30: HP110Q (scFv)
scFv: B1 scFv with F98H, N182G, A234G, P236Q
notes: AS170036 VL1VH1 scFv mutein
B31: HP58G (scFv)
scFv: B1 scFv with F98H, N182G, P184G, A234G
notes: AS170036 VL1VH1 scFv mutein
B32: HG56W (scFv)
scFv: B1 scFv with F98H, N182W, A234G
notes: AS170036 VL1VH1 scFv mutein
B33: HS57F (scFv)
scFv: B1 scFv with F98H, N182G, S183F, A234G
notes: AS170036 VL1VH1 scFv mutein
B34: HS57Y (scFv)
scFv: B1 scFv with F98H, N182G, S183Y, A234G
notes: AS170036 VL1VH1 scFv mutein
B35: HP58A (scFv)
scFv: B1 scFv with F98H, N182G, P184A, A234G
notes: AS170036 VL1VH1 scFv mutein
B36: HP110T (scFv)
scFv: B1 scFv with F98H, N182G, A234G, P236T
notes: AS170036 VL1VH1 scFv mutein
B37: HG56T (scFv)
scFv: B1 scFv with F98H, N182T, A234G
notes: AS170036 VL1VH1 scFv mutein
B38: HP110E (scFv)
scFv: B1 scFv with F98H, N182G, A234G, P236E
notes: AS170036 VL1VH1 scFv mutein
B39: HP110A (scFv)
scFv: B1 scFv with F98H, N182G, A234G, P236A
notes: AS170036 VL1VH1 scFv mutein
B40: HG108A (scFv)
scFv: B1 scFv with F98H, N182G
notes: AS170036 VL1VH1 scFv mutein; also called AS170036 VL1VH1-VHG108A
B41: HS57W (scFv)
scFv: B1 scFv with F98H, N182G, S183W, A234G
notes: AS170036 VL1VH1 scFv mutein
B42: HL107M (scFv)
scFv: B1 scFv with F98H, N182G, L233M, A234G
notes: AS170036 VL1VH1 scFv mutein
B43: HG108V (scFv)
scFv: B1 scFv with F98H, N182G, A234V
notes: AS170036 VL1VH1 scFv mutein

One assay concerns the target T1, AFP158/HLA-A*02:01 complex (human).
T1 construct: flowed as analyte in SPR
Description: SPR, fold vs AS170036 VL1VH1. (In general: Surface plasmon resonance follows binding to a sensor surface in real time, without labels.)
As for B1, the Affinity increase is 41.7 fold.

B2: the Affinity increase was found to be 36.4 fold.

A further assay addresses T2, AFP158/HLA-A*02:01 complex (human).
T2 construct: flowed over the chip in SPR; also called AFP158 pro
Description: SPR, KD ratio to AS170036 VL1VH1.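 Also: crude scFv captured on a sensor chip, peptide–HLA complex passed over at several concentrations, association then buffer dissociation, KD derived from on- and off-rates.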
Description: (§1) The experiment was carried out as follows. The crude scFv protein were captured onto the sensorchip. Different concentrations (320, 160, 40 nM) of AFP158/HLA-A*02:01 complex flowed over the sensorchip surface, and were allowed to bind the antibody fragment for 100 s followed by injection of the running buffer to allow dissociation of the complex. On-rate (kd) and off-rate (kd) were calculated based on association and dissociation curve, and were used to estimate the equilibrium dissociation constant (KD).
In the case of B3, the Affinity increase turned out to be 4.1 fold.

As for B4, the Affinity increase was 4.4 fold.

Regarding B5, the Affinity increase was found to be 1.5 fold.

B6: the Affinity increase came out at 1.1 fold.

Take B7: the Affinity increase came to 0.5 fold.

Regarding B8, the Affinity increase stood at 0.6 fold.

With B9, the Affinity increase is 1.1 fold.

In the case of B10, the Affinity increase was determined as 2.4 fold.

As to B11, the Affinity increase turned out to be 4.7 fold.

As for B12, the Affinity increase turned out to be 1.2 fold.

On to B13, for which the Affinity increase amounted to 1.5 fold.

For B14, the Affinity increase was determined as 0.5 fold.

For the molecule B15, the Affinity increase is 2.8 fold.

For B16, the Affinity increase came out at 1 fold.

On to B17, for which the Affinity increase stood at 2 fold.

Regarding B18, the Affinity increase is 1.2 fold.

B19: the Affinity increase came to 0.5 fold.

B20: the Affinity increase amounted to 0.5 fold.

Consider B21, for which the Affinity increase turned out to be 6.6 fold.

In the case of B22, the Affinity increase came out at 6.9 fold.

Consider B23, for which the Affinity increase came to 0.5 fold.

For the molecule B24, the Affinity increase was found to be 1.4 fold.

On to B25, for which the Affinity increase stood at 2.7 fold.

As for B26, the Affinity increase is 0.8 fold.

In the case of B27, the Affinity increase is 2.8 fold.

Take B28: the Affinity increase turned out to be 5.5 fold.

On to B29, for which the Affinity increase worked out at 1.4 fold.

In the case of B30, the Affinity increase was 0.9 fold.

Turning to B31, the Affinity increase is 0.9 fold.

For B32, the Affinity increase amounted to 1.7 fold.

Consider B33, for which the Affinity increase is 1.4 fold.

As to B34, the Affinity increase is 1.2 fold.

For the molecule B35, the Affinity increase was 0.7 fold.

As for B36, the Affinity increase amounted to 1.3 fold.

On to B37, for which the Affinity increase was 0.7 fold.

For B38, the Affinity increase was determined as 1.8 fold.

For the molecule B39, the Affinity increase came to 1.3 fold.

As to B40, the Affinity increase worked out at 5.5 fold.

With B41, the Affinity increase stood at 0.6 fold.

Regarding B42, the Affinity increase amounted to 0.7 fold.

Turning to B43, the Affinity increase was 0.7 fold.

Another assay concerns the target T2, AFP158/HLA-A*02:01 complex. In words: SPR, scFv captured, pMHC in flow.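 Also: complex injected at several concentrations over crude scFv, association then running-buffer dissociation, KD estimated from kinetic on- and off-rate constants.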
Description: as §1
In general, Kd refers to a measure of binding affinity in units of concentration. With B3, the Kd was determined as 56 nM.

Turning to B4, the Kd worked out at 56 nM.

Turning to B5, binding was put at a Kd of 160 nM.

For the molecule B6, the Kd worked out at 240 nM.

Turning to B7, binding was put at a Kd of 500 nM.

B8 displayed a Kd of 400 nM.

As to B9, binding was characterised by a dissociation constant (Kd) of 220 nM.

On to B10, for which the Kd was determined as 100 nM.

In turn, B11 came in with a Kd of 58 nM.

Molecule B12 displayed a Kd of 210 nM.

Molecule B13 came in with a Kd of 170 nM.

B14 returned a Kd of 530 nM.

In turn, B15 registered a Kd of 88 nM.

In turn, B16 displayed a Kd of 260 nM.

Take B17: the Kd stood at 140 nM.

As to B18, the Kd is 200 nM.

With B19, the Kd amounted to 540 nM.

In turn, B20 registered a Kd of 530 nM.

B21: the Kd turned out to be 35 nM.

In turn, B22 yielded a Kd of 35 nM.

Molecule B23 had a Kd of 600 nM.

In turn, B24 returned a Kd of 200 nM.

Molecule B25 returned a Kd of 90 nM.

Take B26: the affinity, expressed as Kd, was 300 nM.

The molecule B27 had a Kd of 96 nM.

B28 returned a Kd of 42 nM.

The molecule B29 came in with a Kd of 200 nM.

B30 showed a Kd of 300 nM.

As to B31, the affinity, expressed as Kd, was 320 nM.

Regarding B32, the Kd is 130 nM.

The molecule B33 came in with a dissociation constant (Kd) of 180 nM.

With B34, the equilibrium dissociation constant (Kd) was found to be 200 nM.

Turning to B35, the Kd was 380 nM.

As for B36, the Kd was determined as 180 nM.

As to B37, the Kd was found to be 340 nM.

Turning to B38, binding was characterised by a dissociation constant (Kd) of 150 nM.

Take B39: the Kd amounted to 210 nM.

Molecule B40 gave a Kd of 42 nM.

Regarding B41, the Kd worked out at 380 nM.

In turn, B42 returned a Kd of 370 nM.

As to B43, the equilibrium dissociation constant (Kd) was determined as 370 nM.

The next assay concerns the target T1, AFP158/HLA-A*02:01 complex. In words: SPR, crude scFv captured, pMHC analyte.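 Also: complex injected at several concentrations over the chip, association phase then running buffer for dissociation, KD derived from on- and off-rates computed from both curves.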
The koff is the rate constant with which the complex falls apart. Read a high koff as a short-lived complex. A word on the kon: it is the rate constant with which the complex forms. Lower therefore signals slower complex formation. Molecule B1 yielded a Kd of 5.4 nM, a koff of 0.0015 s⁻¹ and a kon of 270000 M⁻¹ s⁻¹.

B2 yielded a Kd of 6.2 nM, a koff of 0.0019 s⁻¹ and a kon of 310000 M⁻¹ s⁻¹.
